Residue numbers refer to the chain shown, from its start. Names may count otherwise.
Tests used:
[1] = target: T1, ΔEstO (Pseudoalteromonas arctica, UniProt D6CHH1); assay: […] min end-point 4-nitrophenol release, […] nm; assay type: biochemical; details: 1.5 mM substrate
T1 construct: gene estO; N-terminal His6 (pDEST17), E. coli BL21-AI

[2] = target: T2, ΔEstCAL (Cellulophaga algicola, UniProt E6X8P4); assay: […] min end-point 4-nitrophenol release, […] nm; assay type: biochemical; details: 1.5 mM substrate, gum arabic, universal buffer pH 5-11, 30 °C, or Tris-HCl pH 8.5, 5-50 °C
T2 construct: gene Celal_0286; C-terminal His6 (pEXP5-CT), E. coli BL21-AI
T2 sequence (E6X8P4 entry or part of it, stated change not applied): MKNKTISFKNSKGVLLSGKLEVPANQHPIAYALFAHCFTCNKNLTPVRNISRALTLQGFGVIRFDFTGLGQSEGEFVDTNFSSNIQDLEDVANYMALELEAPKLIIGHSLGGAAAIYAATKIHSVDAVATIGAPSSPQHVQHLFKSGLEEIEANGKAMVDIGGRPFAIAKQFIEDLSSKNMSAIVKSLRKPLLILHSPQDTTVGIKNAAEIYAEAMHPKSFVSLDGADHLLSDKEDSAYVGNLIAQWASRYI

[3] = target: T3, ΔEstEM (Sinorhizobium meliloti, UniProt Q92Y44); assay: […] min end-point 4-nitrophenol release, […] nm; assay type: biochemical; details: 1.5 mM substrate
T3 construct: gene SMa1898; N-terminal His6 (pDEST17), E. coli BL21-AI
T3 sequence (Q92Y44 entry or part of it, stated change not applied): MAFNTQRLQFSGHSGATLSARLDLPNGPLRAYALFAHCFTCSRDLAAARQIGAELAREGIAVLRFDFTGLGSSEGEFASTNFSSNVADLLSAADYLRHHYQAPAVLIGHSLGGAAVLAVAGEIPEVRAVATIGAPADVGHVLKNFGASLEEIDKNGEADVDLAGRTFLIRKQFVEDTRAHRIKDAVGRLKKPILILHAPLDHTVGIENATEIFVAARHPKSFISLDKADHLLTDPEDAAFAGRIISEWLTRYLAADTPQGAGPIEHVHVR

[4] = target: T4, ΔEstRD (Roseobacter denitrificans, UniProt Q166H3); assay: […] min end-point 4-nitrophenol release, […] nm; assay type: biochemical; details: 1.5 mM substrate
T4 construct: gene RD1_2563; C-terminal His6 (pEXP5-CT), E. coli BL21-AI
T4 sequence (Q166H3 entry or part of it, stated change not applied): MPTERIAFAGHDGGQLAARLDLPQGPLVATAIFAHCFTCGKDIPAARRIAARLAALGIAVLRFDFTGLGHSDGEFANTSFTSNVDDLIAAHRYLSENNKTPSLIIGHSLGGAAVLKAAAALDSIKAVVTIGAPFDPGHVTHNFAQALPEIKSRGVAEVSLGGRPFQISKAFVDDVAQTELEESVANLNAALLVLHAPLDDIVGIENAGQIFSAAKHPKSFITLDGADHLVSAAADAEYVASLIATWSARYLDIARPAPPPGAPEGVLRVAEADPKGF

[5] = target: T5, ΔEstCA (Catenulispora acidiphila, UniProt C7Q579); assay: […] min end-point 4-nitrophenol release, […] nm; assay type: biochemical; details: 1.5 mM substrate, gum arabic, universal buffer pH 5-11, 30 °C, or Tris-HCl pH 8.5, 5-50 °C
T5 construct: gene Caci_7018; C-terminal His6 (pEXP5-CT), E. coli BL21-AI
T5 sequence (C7Q579 1-255): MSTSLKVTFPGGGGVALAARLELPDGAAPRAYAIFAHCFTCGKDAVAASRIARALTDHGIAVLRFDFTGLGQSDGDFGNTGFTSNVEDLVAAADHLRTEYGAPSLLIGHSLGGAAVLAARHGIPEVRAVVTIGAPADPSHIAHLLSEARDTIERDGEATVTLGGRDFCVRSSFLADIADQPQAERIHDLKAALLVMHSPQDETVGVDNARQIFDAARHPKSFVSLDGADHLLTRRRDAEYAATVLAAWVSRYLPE

[6] = target: T6, ΔEstLA (Roseibium aggregatum, UniProt A0NLQ8); assay: […] min end-point 4-nitrophenol release, […] nm; assay type: biochemical; details: 1.5 mM substrate, gum arabic, universal buffer pH 5-11, 30 °C, or Tris-HCl pH 8.5, 5-50 °C
T6 construct: gene SIAM614_09253; N-terminal His6 (pDEST17), E. coli BL21-AI
T6 sequence (A0NLQ8 1-266): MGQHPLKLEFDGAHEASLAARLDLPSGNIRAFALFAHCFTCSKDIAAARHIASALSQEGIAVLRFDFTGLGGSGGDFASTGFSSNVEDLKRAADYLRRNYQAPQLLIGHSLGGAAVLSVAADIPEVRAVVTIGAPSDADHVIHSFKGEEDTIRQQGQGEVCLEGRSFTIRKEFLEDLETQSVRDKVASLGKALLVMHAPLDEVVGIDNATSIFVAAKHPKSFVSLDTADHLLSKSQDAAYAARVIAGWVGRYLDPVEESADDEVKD

[7] = substrate: O=C(Oc1ccc([N+](=O)[O-])cc1)c1ccccc1; assay: purified protein; assay type: biochemical, Rhodothermus marinus; details: 25 mM Tris-HCl pH 8.5, 5% acetonitrile, 0.5% Triton X-100
[8] = substrate: CCCC(=O)Oc1ccc([N+](=O)[O-])cc1; assay: purified protein; assay type: biochemical, Rhodothermus marinus; details: 25 mM Tris-HCl pH 8.5, 5% acetonitrile, 0.5% Triton X-100
[9] = substrate: CCCCCCCC(=O)Oc1ccc([N+](=O)[O-])cc1; assay: purified protein; assay type: biochemical, Rhodothermus marinus; details: 25 mM Tris-HCl pH 8.5, 5% acetonitrile, 0.5% Triton X-100
[10] = substrate: CCCCCCCCCC(=O)Oc1ccc([N+](=O)[O-])cc1; assay: purified protein; assay type: biochemical, Rhodothermus marinus; details: 25 mM Tris-HCl pH 8.5, 5% acetonitrile, 0.5% Triton X-100
[11] = substrate: CCCCCCCCCCCC(=O)Oc1ccc([N+](=O)[O-])cc1; assay: purified protein; assay type: biochemical, Rhodothermus marinus; details: 25 mM Tris-HCl pH 8.5, 5% acetonitrile, 0.5% Triton X-100
[12] = substrate: CC(=O)Oc1ccc([N+](=O)[O-])cc1; assay: purified protein; assay type: biochemical, Rhodothermus marinus; details: 25 mM Tris-HCl pH 8.5, 5% acetonitrile, 0.5% Triton X-100
[13] = gum arabic, universal buffer pH 5-11, 30 °C, or Tris-HCl pH 8.5, 5-50 °C

T1 sequence (D6CHH1 entry or part of it, stated change not applied): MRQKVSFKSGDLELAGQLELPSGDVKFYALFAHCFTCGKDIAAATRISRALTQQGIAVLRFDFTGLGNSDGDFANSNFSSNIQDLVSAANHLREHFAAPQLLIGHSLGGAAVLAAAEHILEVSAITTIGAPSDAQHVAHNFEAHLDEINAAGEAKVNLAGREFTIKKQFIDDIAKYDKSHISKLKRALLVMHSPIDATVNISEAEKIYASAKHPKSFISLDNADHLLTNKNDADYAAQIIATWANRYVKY

## O=C(Oc1ccc([N+](=O)[O-])cc1)c1ccccc1 [4NP-benzoate]
[1]; [13]
  30 min end-point 4-nitrophenol release, 410 nm: optimum temperature and pH profiles of each enzyme using p-nitrophenyl benzoate as a substrate
[2]
  30 min end-point 4-nitrophenol release, 410 nm: optimum temperature and pH profiles of each enzyme using p-nitrophenyl benzoate as a substrate
[3]; [13]
  30 min end-point 4-nitrophenol release, 410 nm: optimum temperature and pH profiles of each enzyme using p-nitrophenyl benzoate as a substrate
[4]; [13]
  30 min end-point 4-nitrophenol release, 410 nm: optimum temperature and pH profiles of each enzyme using p-nitrophenyl benzoate as a substrate
[5]
  30 min end-point 4-nitrophenol release, 410 nm: optimum temperature and pH profiles of each enzyme using p-nitrophenyl benzoate as a substrate
[6]
  30 min end-point 4-nitrophenol release, 410 nm: optimum temperature and pH profiles of each enzyme using p-nitrophenyl benzoate as a substrate

## CCCCCCCCCC(=O)Oc1ccc([N+](=O)[O-])cc1 [4NP-decanoate]
[1]; Tris-HCl pH 8.5
  30 min end-point 4-nitrophenol release, 410 nm: ΔEstEM, ΔEstRD, and ΔEstO showed a preference for decanoate (C10)
[3]; Tris-HCl pH 8.5
  30 min end-point 4-nitrophenol release, 410 nm: ΔEstEM, ΔEstRD, and ΔEstO showed a preference for decanoate (C10)
[4]; Tris-HCl pH 8.5
  30 min end-point 4-nitrophenol release, 410 nm: ΔEstEM, ΔEstRD, and ΔEstO showed a preference for decanoate (C10)

B1: EstRM (Rhodothermus marinus DSM 4252) (protein)
chain: MQIKTVTFENNRGERLAARLDLPVDTQPVAYALFAHCFTCSKNLKAVTTISRALTTQGYAVLRFDFTGLGESEGDFSETTFATNFEDLRAACRFLSAQYEPPALLIGHSLGGAAVLAVAGEFPEVKAVATIGAPCDPAHVRHLLRPALDTIKTVGEAVVDLGGRPFRIKKQFLEELERVNLEDQVRTMRRPLLLFHSPTDQIVGIENAACLFQAARHPKSFVSLDQADHLLSNSDDAAFVGEVLGAWARRYVGRRPVPDTYRLDPGEARAVVRTGRAHYRTDIAADGHALVADEPAPLGGTDAGPSPYGYLAAALGACTTITLRLYADRKGWPLEAATAYIYHEKVHLNDCTECAEQGIEQTPGGKIDRFTVELTLEGALDAAQRQRLLEIAGRCPVHRTLKSPVVTRTRLRD
notes: full length, 410 residues, His6 tag, E. coli BL21-AI; monomer
[7]
  Km: 292 ± 31 µM
[8]
  Km: 962 ± 140 µM
[9]
  Km: 309 ± 70 µM

B2: ΔEstRM (Rhodothermus marinus DSM 4252; S72A) (protein)
chain: MQIKTVTFENNRGERLAARLDLPVDTQPVAYALFAHCFTCSKNLKAVTTISRALTTQGYAVLRFDFTGLGEAEGDFSETTFATNFEDLRAACRFLSAQYEPPALLIGHSLGGAAVLAVAGEFPEVKAVATIGAPCDPAHVRHLLRPALDTIKTVGEAVVDLGGRPFRIKKQFLEELERVNLEDQVRTMRRPLLLFHSPTDQIVGIENAACLFQAARHPKSFVSLDQADHLLSNSDDAAFVGEVLGAWARRYVGRR
notes: esterase domain, residues 1-255 of 410, OsmC domain removed; N-terminal His6 (pDEST17, E. coli BL21-AI; crystal text says C-terminal His6); monomer
[8]
  Km: 1050 ± 210 µM
[9]
  Km: 660 ± 60 µM

B3: ΔEstRM (Rhodothermus marinus DSM 4252) (protein)
chain: B2 chain with A72S
notes: as for B2
[10]
  Km: 825 ± 130 µM
[7]
  Km: 244 ± 12 µM
[11]
  Km: 981 ± 150 µM
[8]
  Km: 1070 ± 170 µM
[9]
  Km: 490 ± 48 µM
[12]
  Km: 3540 ± 800 µM

— article PMC5113044, “Characterisation of a New Family of Carboxyl Esterases with an OsmC Domain” (PLoS ONE, 2016)
